From patent publication US20250019439A1 (Adimab, published 2025)

Assays:
ADI-26927 anti-CD3 bsIgG = molecular target: T1, ADI-26927 anti-CD3 bsIgG; test: BLI; tip anti-CD3 bsIgG, solution ADI-34134 Fab
T1 construct: anti-HER2 IgG with one Fab arm replaced by the anti-CD3 scFv (printed 'Vx-VH', read as VL-VH); S354C and Y349C mutations; also called anti-CD3 bsIgG (ADI-26927 scFv); not shown: scFv linker; anti-HER2 Fab arm (heavy and light chain); hinge and Fc with S354C/Y349C
Protocol: (§1) ForteBio affinity measurements were performed generally as previously described (Estep et al., MAbs. 2013 5(2):270-8). Briefly, ForteBio affinity measurements were performed by loading antibody IgG or Fabs on-line onto AHC sensors. Sensors were equilibrated off-line in assay buffer for 30 minutes and then monitored on-line for 60 seconds for baseline establishment. For avid binding measurement, sensors with loaded antibodies were exposed to IgG or Fab solutions for 3 minutes, afterwards they were transferred to assay buffer for 3 minutes for off-rate measurement. Kinetics data were fit using a 1:1 binding model in the data analysis software provided by ForteBio to obtain equilibrium dissociation constant (KD=koff/kₒₙ) values. In each column, tip-immobilized antibodies are listed first and solution antibodies second.
(§2) Additional analysis was conducted using bispecific antibody formats incorporating anti-CD3 antibody variable domains. Bispecific antibodies were prepared using standard IgG formats (bsIgG) with replacement of Fab arms with anti-CD3 scFvs in Vx-VH orientation and with S354C and Y349C mutations for disulfide stabilization. Antibodies used for Fab arm replacement were anti-HER2 IgG antibodies, with one Fab arm from each replaced by a scFv corresponding to a different anti-CD3 antibody. […] In each column, tip-immobilized antibodies are listed first and solution antibodies second. Anti-CD3 antibodies associated with incorporated scFvs are listed by antibody number.

ADI-26920 anti-CD3 bsIgG [1] = molecular target: T2, ADI-26920 anti-CD3 bsIgG; test: BLI; tip anti-CD3 bsIgG, solution ADI-34134 Fab
T2 construct: anti-HER2 IgG with one Fab arm replaced by the anti-CD3 scFv (printed 'Vx-VH', read as VL-VH); S354C and Y349C mutations; also called anti-CD3 bsIgG (ADI-26920 scFv); not shown: scFv linker; anti-HER2 Fab arm (heavy and light chain); hinge and Fc with S354C/Y349C
Protocol: as §1, §2

ADI-26913 anti-CD3 bsIgG [2] = molecular target: T3, ADI-26913 anti-CD3 bsIgG; test: BLI; tip anti-CD3 bsIgG, solution ADI-34134 Fab
T3 construct: anti-HER2 IgG with one Fab arm replaced by the anti-CD3 scFv (printed 'Vx-VH', read as VL-VH); S354C and Y349C mutations; also called anti-CD3 bsIgG (ADI-26913 scFv); not shown: scFv linker; anti-HER2 Fab arm (heavy and light chain); hinge and Fc with S354C/Y349C
Protocol: as §1, §2

ADI-26928 anti-CD3 bsIgG = molecular target: T4, ADI-26928 anti-CD3 bsIgG; test: BLI; tip anti-CD3 bsIgG, solution ADI-34134 Fab
T4 construct: anti-HER2 IgG with one Fab arm replaced by the anti-CD3 scFv (printed 'Vx-VH', read as VL-VH); S354C and Y349C mutations; also called anti-CD3 bsIgG (ADI-26928 scFv); not shown: scFv linker; anti-HER2 Fab arm (heavy and light chain); hinge and Fc with S354C/Y349C
Protocol: as §1, §2

CTL-19613 anti-CD3 bsIgG [3] = molecular target: T5, CTL-19613 anti-CD3 bsIgG (In the assay the two domains were one scFv (VL-VH orientation, linker not given). It replaced one Fab arm of an anti-HER2 IgG; S354C and Y349C mutations are stated for disulfide stabilization.); test: BLI; tip anti-CD3 bsIgG, solution ADI-34134 Fab
T5 construct: anti-HER2 IgG with one Fab arm replaced by the anti-CD3 scFv (printed 'Vx-VH', read as VL-VH); S354C and Y349C mutations; also called anti-CD3 bsIgG (CTL-19613 scFv); not shown: scFv linker between VL and VH; anti-HER2 heavy and light chains of the other arm; hinge and Fc (with S354C / Y349C)
Protocol: as §1, §2

ADI-26921 anti-CD3 bsIgG = molecular target: T6, ADI-26921 anti-CD3 bsIgG; test: BLI; tip anti-CD3 bsIgG, solution ADI-34134 Fab
T6 construct: anti-HER2 IgG with one Fab arm replaced by the anti-CD3 scFv (printed 'Vx-VH', read as VL-VH); S354C and Y349C mutations; also called anti-CD3 bsIgG (ADI-26921 scFv); not shown: scFv linker; anti-HER2 Fab arm (heavy and light chain); hinge and Fc with S354C/Y349C
Protocol: as §1, §2

ADI-22523 anti-CD3 bsIgG = molecular target: T7, ADI-22523 anti-CD3 bsIgG (In the assayed molecule VL and VH are joined as one scFv (printed 'Vx-VH' orientation) by an undisclosed linker and fused to an Fc, paired with an anti-HER2 half-IgG. They are given here as two …); test: BLI; tip anti-CD3 bsIgG, solution ADI-34134 Fab
T7 construct: anti-HER2 IgG with one Fab arm replaced by the anti-CD3 scFv (printed 'Vx-VH', read as VL-VH); S354C and Y349C mutations; not shown: scFv linker between VL and VH; anti-HER2 heavy and light chains; hinge and Fc with S354C/Y349C
Protocol: as §1, §2

ADI-26906 anti-CD3 bsIgG [4] = molecular target: T8, ADI-26906 anti-CD3 bsIgG; test: BLI; tip anti-CD3 bsIgG, solution ADI-34134 Fab
T8 construct: anti-HER2 IgG with one Fab arm replaced by the anti-CD3 scFv (printed 'Vx-VH', read as VL-VH); S354C and Y349C mutations; also called anti-CD3 bsIgG (ADI-26906 scFv); not shown: scFv linker; anti-HER2 Fab arm (heavy and light chain); hinge and Fc with S354C/Y349C
Protocol: as §1, §2

ADI-22523 IgG [5] = molecular target: T9, ADI-22523 IgG; test: BLI; tip anti-CD3 IgG, solution ADI-34134 Fab
T9 construct: anti-CD3 IgG
Protocol: as §1
(§3) CTL-19613 is an IgG1 antibody prepared with anti-CD3 variable domains corresponding with those of clone 12C described in United States Publication Number US 2010/0183615 (e.g., see paragraphs 469-479 and FIG. 25 thereof), which also make up the CD3 binding domain of the bispecific antibody pasotuxizumab. […] In each column, tip-immobilized antibodies are listed first and solution antibodies second.

ADI-26906 IgG [6] = molecular target: T10, ADI-26906 IgG; test: BLI; tip anti-CD3 IgG, solution ADI-34134 Fab
T10 construct: anti-CD3 IgG
Protocol: as §1, §3

ADI-26920 IgG [7] = molecular target: T11, ADI-26920 IgG; test: BLI; tip anti-CD3 IgG, solution ADI-34134 Fab
T11 construct: anti-CD3 IgG
Protocol: as §1, §3

ADI-26921 IgG = molecular target: T12, ADI-26921 IgG; test: BLI; tip anti-CD3 IgG, solution ADI-34134 Fab
T12 construct: anti-CD3 IgG
Protocol: as §1, §3

ADI-26941 IgG = molecular target: T13, ADI-26941 IgG; test: BLI; tip anti-CD3 IgG, solution ADI-34134 Fab
T13 construct: anti-CD3 IgG
Protocol: as §1, §3

ADI-26928 IgG = molecular target: T14, ADI-26928 IgG; test: BLI; tip anti-CD3 IgG, solution ADI-34134 Fab
T14 construct: anti-CD3 IgG
Protocol: as §1, §3

CTL-19613 IgG [8] = test: BLI; tip anti-CD3 IgG, solution ADI-34134 Fab
Protocol: as §1, §3

ADI-26913 IgG [9] = molecular target: T15, ADI-26913 IgG; test: BLI; tip anti-CD3 IgG, solution ADI-34134 Fab
T15 construct: anti-CD3 IgG
Protocol: as §1, §3

ADI-26916 IgG [10] = molecular target: T16, ADI-26916 IgG; test: BLI; tip anti-CD3 IgG, solution ADI-34134 Fab
T16 construct: anti-CD3 IgG
Protocol: as §1, §3

ADI-26927 IgG = molecular target: T17, ADI-26927 IgG; test: BLI; tip anti-CD3 IgG, solution ADI-34134 Fab
T17 construct: anti-CD3 IgG
Protocol: as §1, §3

ADI-22523 IgG [11] = molecular target: T9, ADI-22523 IgG; test: BLI; tip anti-CD3 IgG, solution ADI-34145 Fab
Protocol: as §1, §3

ADI-26906 IgG [12] = molecular target: T10, ADI-26906 IgG; test: BLI; tip anti-CD3 IgG, solution ADI-34145 Fab
Protocol: as §1, §3

ADI-26920 IgG [13] = molecular target: T11, ADI-26920 IgG; test: BLI; tip anti-CD3 IgG, solution ADI-34145 Fab
Protocol: as §1, §3

CTL-19613 IgG [14] = test: BLI; tip anti-CD3 IgG, solution ADI-34145 Fab
Protocol: as §1, §3

ADI-26913 IgG [15] = molecular target: T15, ADI-26913 IgG; test: BLI; tip anti-CD3 IgG, solution ADI-34145 Fab
Protocol: as §1, §3

ADI-26916 IgG [16] = molecular target: T16, ADI-26916 IgG; test: BLI; tip anti-CD3 IgG, solution ADI-34145 Fab
Protocol: as §1, §3

CTL-19672 IgG = molecular target: T18, CTL-19672 IgG; test: BLI; tip anti-CD3 IgG, solution ADI-34145 Fab
T18 construct: IgG1 with the anti-CD3 variable domains of clone 38E4v1
Protocol: as §1, §3

ADI-26920 anti-CD3 bsIgG [17] = molecular target: T2, ADI-26920 anti-CD3 bsIgG; test: BLI; tip anti-CD3 bsIgG, solution ADI-34145 Fab
Protocol: as §1, §2

ADI-26913 anti-CD3 bsIgG [18] = molecular target: T3, ADI-26913 anti-CD3 bsIgG; test: BLI; tip anti-CD3 bsIgG, solution ADI-34145 Fab
Protocol: as §1, §2

CTL-19613 anti-CD3 bsIgG [19] = molecular target: T5, CTL-19613 anti-CD3 bsIgG; test: BLI; tip anti-CD3 bsIgG, solution ADI-34145 Fab
Protocol: as §1, §2

ADI-26906 anti-CD3 bsIgG [20] = molecular target: T8, ADI-26906 anti-CD3 bsIgG; test: BLI; tip anti-CD3 bsIgG, solution ADI-34145 Fab
Protocol: as §1, §2

CTL-19672 anti-CD3 bsIgG = molecular target: T19, CTL-19672 anti-CD3 bsIgG (In the assay the two domains were one scFv (VL-VH orientation, linker not given). It replaced one Fab arm of an anti-HER2 IgG; S354C and Y349C mutations are stated for disulfide stabilization.); test: BLI; tip anti-CD3 bsIgG, solution ADI-34145 Fab
T19 construct: anti-HER2 IgG with one Fab arm replaced by the anti-CD3 scFv (printed 'Vx-VH', read as VL-VH); S354C and Y349C mutations; not shown: scFv linker between VL and VH; anti-HER2 heavy and light chains of the other arm; hinge and Fc (with S354C / Y349C)
Protocol: as §1, §2

T9 sequence (VH, as listed by the source limits assumed, chain 1 of 2): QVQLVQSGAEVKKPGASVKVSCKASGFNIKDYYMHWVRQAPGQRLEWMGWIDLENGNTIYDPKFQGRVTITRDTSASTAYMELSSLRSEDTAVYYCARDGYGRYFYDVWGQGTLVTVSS
T9 sequence (VL, as listed by the source limits assumed, chain 2 of 2): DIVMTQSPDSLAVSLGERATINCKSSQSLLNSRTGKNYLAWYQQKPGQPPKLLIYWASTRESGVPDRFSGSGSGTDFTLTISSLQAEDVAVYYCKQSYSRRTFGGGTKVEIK
T15 sequence (VH, as listed by the source limits assumed, chain 1 of 2): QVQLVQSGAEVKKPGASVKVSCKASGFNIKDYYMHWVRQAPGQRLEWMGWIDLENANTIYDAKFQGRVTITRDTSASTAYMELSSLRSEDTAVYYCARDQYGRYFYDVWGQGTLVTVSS
T15 sequence (VL, as listed by the source limits assumed, chain 2 of 2): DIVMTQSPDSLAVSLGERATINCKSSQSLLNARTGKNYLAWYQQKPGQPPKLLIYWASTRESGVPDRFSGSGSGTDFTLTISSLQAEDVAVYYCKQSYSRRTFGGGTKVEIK
T8 sequence (VH, as listed by the source limits assumed, chain 1 of 2): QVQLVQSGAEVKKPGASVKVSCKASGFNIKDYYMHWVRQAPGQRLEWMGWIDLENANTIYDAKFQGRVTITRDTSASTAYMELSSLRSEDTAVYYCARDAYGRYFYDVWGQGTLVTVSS
T11 sequence (VH, as listed by the source limits assumed, chain 1 of 2): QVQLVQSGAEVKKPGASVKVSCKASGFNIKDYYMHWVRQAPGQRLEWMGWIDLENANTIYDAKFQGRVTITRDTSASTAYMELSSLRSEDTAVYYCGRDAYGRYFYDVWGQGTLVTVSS
T11 sequence (VL, as listed by the source limits assumed, chain 2 of 2): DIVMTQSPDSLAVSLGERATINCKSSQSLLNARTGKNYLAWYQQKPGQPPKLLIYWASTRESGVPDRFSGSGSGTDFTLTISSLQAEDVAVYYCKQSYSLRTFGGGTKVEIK
T16 sequence (VH, as listed by the source, chain 1 of 2): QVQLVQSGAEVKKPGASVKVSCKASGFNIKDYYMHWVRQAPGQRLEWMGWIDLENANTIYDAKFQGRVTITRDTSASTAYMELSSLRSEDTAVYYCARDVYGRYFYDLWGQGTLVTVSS
T7 sequence (VH, as listed by the source limits assumed, chain 1 of 2): as the sequence (VH, as listed by the source, chain 1 of 2) above, with A56G, A62P, V100G, L108V counted along it
T13 sequence (VH, as listed by the source limits assumed, chain 1 of 2): as the sequence (VH, as listed by the source, chain 1 of 2) above, with N55E, A56G, V100Q, L108V counted along it
T13 sequence (VL, as listed by the source limits assumed, chain 2 of 2): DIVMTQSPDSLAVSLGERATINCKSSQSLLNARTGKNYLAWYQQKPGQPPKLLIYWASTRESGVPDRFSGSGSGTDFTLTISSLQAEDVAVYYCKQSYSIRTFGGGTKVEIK
T1 sequence (VH, as listed by the source limits assumed, chain 1 of 2): as the sequence (VH, as listed by the source, chain 1 of 2) above, with N55E, A56G, V100R, R103A, L108V counted along it
T17 sequence (VH, as listed by the source limits assumed, chain 1 of 2): as the sequence (VH, as listed by the source, chain 1 of 2) above, with N55E, A56G, V100R, R103A, L108V counted along it
T14 sequence (VH, as listed by the source limits assumed, chain 1 of 2): as the sequence (VH, as listed by the source, chain 1 of 2) above, with N55E, A56G, A97G, V100A, R103L, L108V counted along it
T4 sequence (VH, as listed by the source limits assumed, chain 1 of 2): as the sequence (VH, as listed by the source, chain 1 of 2) above, with N55E, A56G, A97G, V100A, R103L, L108V counted along it
T19 sequence (VH, as listed by the source limits assumed, chain 1 of 2): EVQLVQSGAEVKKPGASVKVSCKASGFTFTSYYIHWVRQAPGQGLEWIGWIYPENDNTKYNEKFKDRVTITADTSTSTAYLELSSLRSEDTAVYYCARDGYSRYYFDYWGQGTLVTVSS
T19 sequence (VL, as listed by the source limits assumed, chain 2 of 2): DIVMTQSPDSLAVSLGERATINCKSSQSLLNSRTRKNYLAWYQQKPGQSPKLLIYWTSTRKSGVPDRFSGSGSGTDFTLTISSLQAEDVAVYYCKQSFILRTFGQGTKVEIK
T6 sequence (VH, as listed by the source limits assumed, chain 1 of 2): as the sequence (VH, as listed by the source, chain 1 of 2) above, with N55E, A56G, V100A, L108V counted along it
T12 sequence (VH, as listed by the source limits assumed, chain 1 of 2): as the sequence (VH, as listed by the source, chain 1 of 2) above, with N55E, A56G, V100A, L108V counted along it

B1: ADI-34134 Fab (Fab, V domains shown)
VH: QVQLVQSGAEVKKPGSSVKVSCKASGGTFSSYAISWVRQAPGQGLEWMGGIIPIFGTANYAQKFQGRVTITADESTSTAYMELSSLRSEDTAVYYCARGAPNYYGSGGYDDGWFDPWGQGTLVTVSS
VL: EIVLTQSPGTLSLSPGERATLSCRASQSVSSDYLAWYQQKPGQAPRLLIYGASSRATGIPDRFSGSGSGTDFTLTISRLEPEDFAVYYCQQFGRVPTFGGGTKVEIK
notes: Fab made by papain digestion of the IgG
ADI-26927 anti-CD3 bsIgG
  Kd: 48.9 nM
ADI-26920 anti-CD3 bsIgG [1]
  Kd: 28.7 nM
ADI-26913 anti-CD3 bsIgG [2]
  Kd: 74.2 nM
ADI-26928 anti-CD3 bsIgG
  Kd: 110 nM
CTL-19613 anti-CD3 bsIgG [3]
  binding result: no binding
ADI-26921 anti-CD3 bsIgG
  Kd: 37.1 nM
ADI-22523 anti-CD3 bsIgG
  Kd: 10.9 nM
ADI-26906 anti-CD3 bsIgG [4]
  Kd: 27.2 nM
ADI-22523 IgG [5]
  Kd: 5.68 nM
ADI-26906 IgG [6]
  Kd: 17.8 nM
ADI-26920 IgG [7]
  Kd: 31 nM
ADI-26921 IgG
  Kd: 56.5 nM
ADI-26941 IgG
  Kd: 138 nM
ADI-26928 IgG
  Kd: 185 nM
CTL-19613 IgG [8]
  binding result: no binding
ADI-26913 IgG [9]
  Kd: 79.8 nM
ADI-26916 IgG [10]
  Kd: 157 nM
ADI-26927 IgG
  Kd: 38.2 nM

B2: ADI-34145 Fab (Fab, V domains shown)
VH: EVQLLESGGGLVQPGGSLRLSCAASGFTFSSYAMSWVRQAPGKGLEWVSTISGSGGSTYYADSVKGRFTISRDNSKNTLYLQMNSLRAEDTAVYYCARLGGRRGSGSSYYYYYGMDVWGQGTTVTVSS
VL: not shown
notes: as for B1
ADI-22523 IgG [11]
  Kd: 3.22 nM
ADI-26906 IgG [12]
  Kd: 3.25 nM
ADI-26920 IgG [13]
  Kd: 8.97 nM
CTL-19613 IgG [14]
  binding result: no binding
ADI-26913 IgG [15]
  Kd: 3.15 nM
ADI-26916 IgG [16]
  Kd: 19.4 nM
CTL-19672 IgG
  binding result: no binding
ADI-26920 anti-CD3 bsIgG [17]
  Kd: 93.8 nM
ADI-26913 anti-CD3 bsIgG [18]
  Kd: 159 nM
CTL-19613 anti-CD3 bsIgG [19]
  binding result: no binding
ADI-26906 anti-CD3 bsIgG [20]
  Kd: 24.4 nM
CTL-19672 anti-CD3 bsIgG
  binding result: no binding
